The source of these data is paper PMC6879633.

The target of test [1] is WT-A34F/V39L double mutant of wild-type Gβ1 (Streptococcus). The test is described as follows: NMR titration.
Test [2] shares this target. As to the kind of experiment: SEC; analytical size-exclusion chromatography, Superdex 200 Increase; 1 mL of protein at 1 mM loaded; 10 mM sodium phosphate buffer pH 7.4, 1 mL/min; elution time compared with monomeric (wild type) and dimeric (WT-A34F) controls; self-association, monomer or dimer.
The target in test [3] is WT-A34F, A34F point mutant of wild-type Gβ1 (Streptococcus). The description is as above.

Regarding “WT-A34F/V39L double mutant of wild-type Gβ1 (domain or fragment)”, the Kd in test [1] stood at 116 µM. For the same substance, the stoichiometry N in test [2] came out at 2.

For “WT-A34F, A34F point mutant of wild-type Gβ1 (domain or fragment)”, the stoichiometry N in test [3] turned out to be 2.
